This assay has as its target T1, His-CaM (native, Xenopus laevis) (Xenopus laevis, UniProt P0DP33 1-149).
T1 construct: calmodulin, Xenopus laevis, plasmid pET-15b-CaM [41]; also called native untreated CaM; recombinant His-CaM; source: E. coli BL21 (DE3), purified as previously described [8]
Briefly: pull-down; GST proteins (5 μg) bound to glutathione-sepharose beads incubated with soluble recombinant CaM proteins (His-CaM forms, no-tagged wild-type CaM, Met-to-Leu mutants); 10 mM potassium phosphate pH 7.0, 100 mM KCl, 1% Brij; 2 mM Ca2+ or EGTA in Fig. 2E; western blot with CaM antibody. The note with it: both partners purified.

This is an account of results in paper PMC4313936, “N-Terminal and C-Terminal Domains of Calmodulin Mediate FADD and TRADD Interaction” (PLoS ONE, 2015).

B1: GST-TRADD R235A (natural protein)
chain: MAAGQNGHEEWVGSAYLFVESSLDKVVLSDAYAHPQQKVAVYRALQAALAESGGSPDVLQMLKIHRSDPQLIVQLRFCGRQPCGRFLRAYREGALRAALQRSLAAALAQHSVPLQLELRAGAERLDALLADEERCLSCILAQQPDRLRDEELAELEDALRNLKCGSGARGGDGEVASAPLQPPVPSLSEVKPPPPPPPAQTFLFQGQPVVNRPLSLKDQQTFARSVGLKWRKVGASLQRGCRALRDPALDSLAYEYEREGLYEQAFQLLRRFVQAEGRRATLQRLVEALEENELTSLAEDLLGLTDPNGGLA
notes: TRADD, human, point mutant of GST-TRADD; also called R235A TRADD mutant; source: E. coli BL21 (DE3)
For the molecule B1, the binding result is on record as “binds”.
